Reference: the DeepSol protein solubility set

Test: soluble on expression in E. coli; label from the status in PepcDB or PDB records

Sequence	soluble on expression in E. coli
MAWLNPFWSSPKAYVRPPKRGLAPELWASRIPFTHLENFYEVFRALWENRDNLPYAWRILKDGVCDGCALGTSGLEDWTLHGVHLCNVRLRLLSLNTLPPLDPKVLKDVEALKGRKSRELRRLGRLPYPMLRRKGERGFRRVSWDEAMGLATEYLRRHLPEGAFFYLTSRGVPNETYYVVQKAVRALGCNHVDNAARICHSPSTVVLKEALGVAATTCSYTDLIGTDLVVFLGSNVANNQPVMMKYLYHAKKAGTKVAVVNPYREPGMERYFVPSDLESALFGTRIADRFFQILPGGDIAFLHGAAKWMLEEGWVDPGFIRAHTAGFEAYKALLEAIPFAELEKAAGVSREEMRAFAEMVGRAERAVFVWGMGITQHTHGEDNVRAIVNLALLKGFVGREGCGLMPIRGHSGVQGGAEMGAYATAFPGGLPVNPENARRLAELWGFPVPDRPGLTTPEALDRALEGRLGVLWAIGGDFREVMPDPEAVEEALRRVPLRVHQDIVLSSQMLLEPGECVLLLPATTRYEVPGGVTETSTERRVIFSPEIPGPRPPEARPEWEVFQELVHRLRPELKDRFRFASTAEIREEIARVIPLYEGIQRFKAKGDQFQYGGRRLCEGWRFPTPDGKAHFRPVPLPQKEVPEGAFRVVTRRGKQFNSIVHEDQDPLTGAFRDAVYMNPKDAARLGLKPGDPVVLENAFGRYAGRVYLAEVKEGTLEVHWPEGNVLVDPKARSPLAHIPAYKEILAHLRRGEAEAPSPLRP	soluble
ARDPKHDILFEPIQIGPKTLRNRFYQVPHAIGAGSDKPGFQSAHRSVKAEGGWAALNTEYCSINPESDDTHRLSARIWDEGDVRNLKAMTDEVHKYGALAGVELWYGGAHAPNMESRATPRGPSQYASEFETLSYCKEMDLSDIAQVQQFYVDAAKRSRDAGFDIVYVYGAHSYLPLQFLNPYYNKRTDKYGGSLENRARFWLETLEKVKHAVGSDCAIATRFGVDTVYGPGQIEAEVDGQKFVEMADSLVDMWDITIGDIAEWGEDAGPSRFYQQGHTIPWVKLVKQVSKKPVLGVGRYTDPEKMIEIVTKGYADIIGCARPSIADPFLPQKVEQGRYDDIRVCIGCNVCISRWEIGGPPMICTQNATAGEEYRRGWHPEKFRQTKNKDSVLIVGAGPSGSEAARVLMESGYTVHLTDTAEKIGGHLNQVAALPGLGEWSYHRDYRETQITKLLKKNKESQLALGQKPMTADDVLQYGADKVIIATGARWNTDGTNCLTHDPIPGADASLPDQLTPEQVMDGKKKIGKRVVILNADTYFMAPSLAEKLATAGHEVTIVSGVHLANYMHFTLEYPNMMRRLHELHVEELGDHFCSRIEPGRMEIYNIWGDGSKRTYRGPGVSPRDANTSHRWIEFDSLVLVTGRHSECTLWNELKARESEWAENDIKGIYLIGDAEAPRLIADATFTGHRVAREIEEANPQIAIPYKRETIAWGTPHMPGGNFKIEYKV	soluble
MKVRYLTSALLLAMTSGLAAAASVDIRHEYVPDRDGDEHRDRIYVSHRFDNQIGFSVEAKWNYKDGHMGNAGHETGVSYRWKATDNFSLTPGINIDASPSGASVFKYNLTGAYKINDEWDVAARIRHGYKNTDDSRYNQLNLYANRKFEWGKLGVEAEYKDIHGGEGGWKDKGHDQLIDFKGEYTKLESGVIPFFAIAAITHKGDGSEFKDEYVPRFRVGLKYNF	not soluble
MTSAPMSNPSSTSSVVTAAMLAIGDELLSGRTKDKNIGHLADVLTMSGIDLKEVRIVADEEESIVEALNALRSRYDYVFTSGGIGPTHDDITADAISAAFGLPCEHDAEALRLLGDMYRVREMEFTEARKRMARMPKGAAHIANPVSVAPGFVIGNVYVMAGVPQVFQAMLDNVMPTLRTGAKVMSQAVRSPYGEGDIGTPLTAIQKAHPETSIGSYPKYDGQRFSTEIVVRARDAGLLKAATEAVAAMIEAIGQEKQLAASKGDATA	not soluble
KAFTPDEAARFYAAARADRWGWPLAFMLATGLRPGEALGLTWADVTMRGSAEGGTLAAVVHIERTRSVSGGRVYEDTPKTERGRRSLTVTGDAARLLLDARAQAEREAGARLRHNGREYQSTGYVFVTRAGTPYRPDNLRRPMARLCQAVGVPVLTPHKLRHTWASVQAAAGVPVEVLSAELGHAAPSFTRDTYRHVYESERASLTYDPLTPAAAPAPEPEPQGRKRV	not soluble
MSLKMRVYYEDTDAGGVVYHSNYLKFCERARSEIFFNKKVDIFDASKGHFLLAKANCNFLKPAKLGDMIEIKTKILEVKNASVEILQEIYKDEILLFKMELTLAFIKNEKPARMDMQLKKLFEELFEGGSHHHHHH	soluble
MGSDKIHHHHHHKGHRVTGSDANVYPPMSTQLEDQGIELIQGFDPSQLGEAGHYPDLVVIGNAMSRGNPCVEAVLNIGIPYTSGPQFLADHILPERWVLAVSGTHGKTSTSSMLAWILDDCGYEPGFLIGGVPQNFGVSARLGKTAFFVVEADEYDSAFFDKRSKFVHYHPRTLVINNLEFDHADIFADLAAIQKQFNHLVRTVPGEGKIVWPADSHAVKQTIDMGCWSEQETYHLAESANGWYGKALSDDCHRFEVFFDGESQGILEWDLIGQHNIENAMMAIAAARHVGVKPSAAIEALAKFMPPKRRLELLGTVNGVSVYDDFAHHPTAIATTLKGMRAKVGQSKITVVLEPRSNTMKSGVHKDTLAFSMMQADEAFLYQADTIDWNMKEAMEAAVIPVTVLHQIDDVVAKVTATAKAGDTIVVMSNGGFGGLHKKLLAALELRSTVELV	not soluble
MEVRFTRGKSAILERSLTRPKTEVSVSAFALLFSEMVQYCQSRVYSVSELQARLADMGQGVGASLLDVLVMREKNGKRETKVLNILLFIKVNVWKALFGKEADKLEQANDDDKTYYIIEKEPLINAYISVPKENSTLNCAAFTGGIVEAILTHSGFPAKVTVHWHKGTTLMIKFDESVIARDKALDGR	soluble
MGSDKIHHHHHHMPIHLIWGDDAAARDHAIETLIGDVVDQAWSSINLSRLDGADAGQASQALAEARTPPFGSGGRLVLLQRSPFCNACPSELANRFEDVLDLIPETSHLVLCNPNKPDGRLRTTKALQKLVKLKQASEKSFLLPAIWDGAGQQELVERTARDLGLQLEPEATAALVEAIGNDSTRLTAELQKLALHADIRQESATENQSPTLIKAENVAALIEGMATNALQVGDSLLAGHAGEAIARLDALLDAGEPALRIVATLTGQIRGWLWVSLLEQQGERDVNVIAKAAGIGNPKRIYVMRKQLQGRPPQRFLTLLSRLLEVEAALKRGAIPTDAFRDGLLSTP	not soluble
MSDMTDMLEDEMIDPVTGEIIDQKDLAERLLAQAKEQGVSLVGPGGLLNQLTKNVLETALNAELTEYLGHEHGETPLGSNMRNGPRTKTVLTVESGRFRSRSRGTVTGRSSR	not soluble
MLSNQLHFAKPTARTPLVVLVHGLLGSGADWQPVLSHLARTQCAALTLDLPGHGTNPERHCDNFAEAVEMIEQTVQAHVTSEVPVILVGYSLGGRLIMHGLAQGAFSRLNLRGAIIEGGHFGLQENEEKAARWQHDQQWAQRFSQQPIEHVLSDWYQQAVFSSLNHEQRQTLIAQRSANLGSSVAHMLLATSLAKQPYLLPALQALKLPIHYVCGEQDSKFQQLAESSGLSYSQVAQAGHNVHHEQPQAFAKIVQAMIHSIID	soluble
MRGSHHHHHHGSIEGRMEKINYLLPEESAEMTLNQVKSLRQIEGRLRKLFSLKNYQEVMPPSFEYTQLYTALESNGKTFNQEKMFQFIKHEGQSITLRYDFTLPLVRLYSQIKDSTSARYSYFGKIFRKEKRHKGRSTENYQIGIELFGESADKSELEILSLALQVIEQLGLNKTVFEIGSAKFFQRLCQLADGSTELLTELLLKKDLSGLNAFIEKNNFSKELRGLLKEIFITNELSRLENLVTNTKDDVLISSFDQLKEFSEKLSMIKPIIIDLGMVPKMDYYTDLMFKAYSSAANQPILSGGRYDQLLSNFQEEAFAIGFCCHMDTILKALERQELEEDND	soluble
MSLGRPAPFKVGALNSITGAGGTYGPGMLEAIKIGIAEVNAAGGAAGRELKLYAEDDQTRPDAAVLAARKLVDIQHVDAMIGIWSSAVQLATLPITNAAGILSFNTCGAPEIRTEDKRDLVFQFYASNAIIGAAFAAIGQRLGYKRAAVLGYNNATMSVQANHFKAAWEKKGNQIVSSAIYEPNQATYRTEVEKAVAAKPDVIVLSSYTPDATILLKEWYQTGYECKFIMPGYSATPALIKALGPDVMRNIVSTANVPASDNQAYKAFVEKFQAVTKSPPEMFAAAAYDMVITLALAIEAAGPDAKPADLSALVRQVSNPPGQKVSSFVQGRDLLRQKAKIDFDGASSSLDFDANGDTVPDFGIYEFDGKAFALKDVVPGATEGHHHHHH	soluble
